The experiment has as its target T1, fetuin (UniProt P12763 19-359, carrying complex type and O-linked oligosaccharides).
T1 construct: Natural glycoprotein, separated by SDS-PAGE and blotted onto PVDF; also called fetuin carrying complex type and O-linked oligosaccharides
T1 sequence (looked up): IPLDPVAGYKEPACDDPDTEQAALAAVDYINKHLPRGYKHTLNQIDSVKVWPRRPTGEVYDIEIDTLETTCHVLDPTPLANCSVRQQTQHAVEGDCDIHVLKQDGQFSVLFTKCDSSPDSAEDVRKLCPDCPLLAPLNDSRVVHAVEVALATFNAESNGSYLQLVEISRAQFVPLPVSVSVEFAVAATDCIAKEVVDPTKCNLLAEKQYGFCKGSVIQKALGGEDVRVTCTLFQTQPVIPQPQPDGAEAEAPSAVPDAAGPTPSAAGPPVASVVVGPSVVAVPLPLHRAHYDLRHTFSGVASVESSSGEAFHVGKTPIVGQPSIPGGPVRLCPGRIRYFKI
Nature of the experiment: Western blot, 5 µg/lane on PVDF, phage detected with HRP-labeled anti-M13 antibody. As to the method: Fetuin, asialo-fetuin, RNase A, and RNase B (5 μg/lane) were separated by SDS-polyacrylamide gel electrophoresis (10% gel) and blotted onto a PVDF membrane. The SDS-PAGE gel was stained with Coomassie Brilliant Blue. The reactivity of phage antibody to natural glycoproteins was examined by Western blotting with M3-7 phage antibody followed by HRP-labeled anti-M13 phage antibody as described above.

Experimental findings from patent US20100324271A1 (TOKAI UNIVERSITY EDUCATIONAL SYSTEM, published 2010) are described below.

B1: M3-7 phage antibody (scFv, V domains shown)
VH: QVQLQQSGPGLVKASETLSLTCAVSGYSISSGYYWGWIRQPPGKGLEWIGNIYHSGNTYYNPSLKSRVTISRDTSKNHFSLKLKSVTAADTAVYYCARADPGYMIFNWFDPWGQGTLVTVSS
VL: NFMLTQPPSASGTPGQRVTISCSGSSSNIGNNDVYWYQQFPGTAPKLLIYRNNQRPSGVPDRFSGSKSGTSASLAISGLRSEDEADYYCAAWDDSLIFGGGTKLTVLG
notes: also called Man3-specific scFv-displaying phage antibody
With B1, the binding result is on record as “no binding”.
